In patent US20110027291A1, “METHODS, SYSTEMS AND PRODUCTS FOR PREDICTING RESPONSE OF TUMOR CELLS TO A THERAPEUTIC AGENT AND TREATING A PATIENT ACCORDING TO THE PREDICTED RESPONSE” (MERRIMACK PHARMACEUTICALS, INC., priority 2008, published 2011):
Entries after “also recorded” stand apart in the source; their conditions may differ.

What was measured:
SKOV3 xenograft tumor = test: Xenograft study with Ab #6 (predicted set): SKOV3; assay type: in vivo, mice
Protocol: (§1) In the xenograft tumor models, mice (nu/nu mice: 3-4 week old female mice, T-cell deficient; outbred; Albino background; from Charles River Labs, Wilmington, Mass.) are implanted in the right flank with […] cells/mouse (depending on cell line) in 200 μl via subcutaneous injection. Mice are monitored for initial tumor growth. Tumor cells are allowed to grow for several days until the tumor volume is approximately 200 mm^3. The tumor volume is calculated as V=(π/6 (L×W^2). The mice are treated with the Ab #6 antibody at a dosage of 600 μg/injection every 3 days (qd3). Control mice are treated with phosphate buffered saline (PBS).
(§2) To test these model predictions, three additional in vivo xenograft studies were performed. The IGROV1, OVCAR8 and SKOV3 cell lines were used in xenograft studies conducted as described in Example 1, wherein mice were treated with 600 μg of Ab #6 every 3 days or with PBS as a control. The xenograft responses, as determined by changes in tumor volume (in mm^3) over time, are summarized in the graphs of FIGS. 9A-9C. Again, the Growth Rate Reduction (GRR) value for each cell line was calculated using the following formula:
(§3) Growth Rate Reduction=1−(Ab #6 Growth Rate)/(PBS Growth Rate)

OVCAR8 xenograft tumor = test: Xenograft study with Ab #6 (predicted set): OVCAR8; assay type: in vivo, mice
Protocol: as §1, §2, §3

[1] = test system: ACHN xenograft tumor (renal cancer cell line); test: Xenograft efficacy study with Ab #6: ACHN; assay type: in vivo, nu/nu mice
Excerpt: (§4) In this example, four xenograft tumor models were used to identify tumor cell lines that responded to treatment with the anti-ErbB3 antibody Ab #6. The four xenograft tumor models studied represent different indications: MALME3M (melanoma cancer line; ATCC No. HTB-64), ADRr (ovarian cancer cell line; NCI-60, cosmic sample ID No. 905987), ACHN (renal cancer cell line; ATCC No. CRL-1611) and DU145 (prostate cancer cell line; ATCC No. HTB-81).
as §1
(§5) Tumor volume is measured for 60-80 days.
(§6) As a measure of responsiveness of the tumor to Ab #6, the exponential growth rate is determined, which described the experimental data best. The following formula is used to describe the exponential growth. […]

ZR75-1 xenografts = test: Nude mouse xenograft test of MM-121: ZR75-1; assay type: in vivo
Excerpt: (§7) FIG. 11 is a graph depicting the ability of an anti-ErbB3 antibody (Ab #6, MM-121) to inhibit proliferation of ACHN cells and cells of other cell lines. The center line of the three parallel diagonal lines represents the line computed to maximally separate MM-121 responders from non-responders. Predicted responder MDA-MB-231 was subsequently tested as nude mouse xenografts and was confirmed as a responder (i.e., growth of MDA-MB-231 as nude mouse xenografts was inhibited by MM-121 treatment). Other predicted responders would not grow adequately as xenografts and so could not be tested. Predicted non-responders ZR75-1 and HOP92 were subsequently tested as nude mouse xenografts and were confirmed as non-responders (i.e., growth of each as nude mouse xenografts was not inhibited by MM-121 treatment). Other predicted non-responders have not yet been tested experimentally.

ErbB3 [2] = target: T1, ErbB3 (UniProt P21860 20-643, limits assumed); test: Kinexa; same on-rate as 1.43e5 M^-1s^-1, converted to model units per well
T1 construct: Elsewhere it speaks of the ectodomain of human ErbB3; also called E3; HER3

IGROV1 xenograft tumor = test: Xenograft study with Ab #6 (predicted set): IGROV1; assay type: in vivo, mice
Protocol: as §1, §2, §3

[3] = test system: DU145 xenograft tumor (prostate cancer cell line); test: Xenograft efficacy study with Ab #6: DU145; assay type: in vivo, nu/nu mice
Excerpt: as §4, §1, §5, §6

ErbB3 [4] = target: ErbB3 (Homo sapiens, UniProt P21860); test: Ab #6 rate constants measured by Kinexa (inhibitor parameter values, Table 13); assay type: binding
BT474 xenograft tumor = test: Xenograft study with Ab #6 (MM-121): BT474; assay type: in vivo, mice
Excerpt: In this example, the data obtained for the four cell lines examined in the xenograft studies described in Example 1 (ADRr, ACHN, DU154 and MALME3M) and four cell lines including the three examined in the xenograft studies described in Example 7 (IGROV 1, OVCAR8 and SKOV3), as well as a fourth, BT474, also examined in xenograft studies as described in Example 7, were further examined to determine whether direct biomarkers for Ab #6 (MM-121) responsiveness could be identified.
Next, it was examined whether the concentration of heregulin (HRG) in combination with one receptor concentration (e.g., ErbB1, ErbB3) effectively classified the xenograft data into responders and non-responders. As illustrated in the graph of FIG. 11 (in which the log of the concentration of HRG is plotted against the log of the concentration of ErbB1), these two concentration measurements, HRG and one of the ErbB receptors, were able to accurately classify the xenograft data into responders and non-responders. More specifically, the data for four non-responders BT474, MALME3, ADRr and IGROV1, were separable from the data for four responders, OVCAR8, SKOV3, ACHN, and DU154, thereby allowing for classification of non-responders versus responders. […] For this example, EGFR is measured by FACS and HRG is measured by RT-PCR. […]

ErbB3 [5] = target: T1, ErbB3; test: Kinexa
[6] = test system: MALME3M xenograft tumor (melanoma cancer line); test: Xenograft efficacy study with Ab #6: MALME3M; assay type: in vivo, nu/nu mice
Excerpt: as §4, §1, §5, §6

MDA-MB-231 xenografts = test: Nude mouse xenograft test of MM-121: MDA-MB-231; assay type: in vivo
Excerpt: as §7

HOP92 xenografts = test: Nude mouse xenograft test of MM-121: HOP92; assay type: in vivo
Excerpt: as §7

[7] = test system: ADRr xenograft tumor (ovarian cancer cell line); test: Xenograft efficacy study with Ab #6: ADRr; assay type: in vivo, nu/nu mice
Excerpt: as §4, §1, §5, §6

[8] = 600 μg of Ab #6 every 3 days vs PBS
[9] = Ab #6 600 μg/injection every 3 days vs PBS
[10] = Ab #6 600 μg/injection every 3 days vs PBS, negative GRR set to zero

B1: anti-ErbB3 monoclonal antibody Ab #6 (antibody, V domains shown)
VH: EVQLLESGGGLVQPGGSLRLSCAASGFTFSHYVMAWVRQAPGKGLEWVSSISSSGGWTLYADSVKGRFTISRDNSKNTLYLQMNSLRAEDTAVYYCTRGLKMATIFDYWGQGTLVTVSS
VL: QSALTQPASVSGSPGQSITISCTGTSSDVGSYNVVSWYQQHPGKAPKLIIYEVSQRPSGVSNRFSGSKSGNTASLTISGLQTEDEADYYCCSYAGSSIFVIFGGGTKVTVL
notes: also called MM-121
experimentally observed responsiveness to Ab #6 based on GRR value (SKOV3 xenograft tumor): responders | GRR (Tumor Growth Rate Reduction) (SKOV3 xenograft tumor; [8]): 19.6% | experimentally observed responsiveness to Ab #6 based on GRR value (OVCAR8 xenograft tumor): responders | GRR (Tumor Growth Rate Reduction) (OVCAR8 xenograft tumor; [8]): 91.4% | GRR (Tumor Growth Rate Reduction) [1, 9]: 28.0% | effect of antibody treatment on tumor growth (in words) ([1]; vs PBS control): inhibited tumor growth; also recorded: mid-range responsiveness | growth as nude mouse xenografts under MM-121 treatment (ZR75-1 xenografts): not inhibited | kon (ErbB3 [2]): 143000 M⁻¹ s⁻¹ | experimentally observed responsiveness to Ab #6 based on GRR value (IGROV1 xenograft tumor): non-responder | GRR (Tumor Growth Rate Reduction) (IGROV1 xenograft tumor; [8]): 6.3% | GRR (Tumor Growth Rate Reduction) [3, 9]: 72.6% | effect of antibody treatment on tumor growth (in words) ([3]; vs PBS control): inhibited tumor growth; also recorded: highest responsiveness | Ab #6 inhibitor binding to ErbB3 (on-rate before unit conversion) (ErbB3 [4]): calculated as 1.43e5 M^−1s^−1/(Vmedia * Av/Num_cells). | kr Ab #6_1: Ab #6 inhibitor dissociation from ErbB3 (ErbB3 [4]): 0.00011 s⁻¹ | kr Ab #6_2: Ab #6 inhibitor dissociation from a second ErbB3 (ErbB3 [4]; 2 * krmm121_1): 0.00022 s⁻¹ | kf Ab #6_1: Ab #6 inhibitor binding to ErbB3 (ErbB3 [4]; unit conversion from M^−1s^−1 /(Vmedia * Av/Num_cells), Num_cells = 30,000 per well): 7.15E−11 molecules^−1 sec^−1 | xenograft responsiveness (responder / non-responder) (BT474 xenograft tumor): non-responders | koff (ErbB3 [5]): 0.00011 s⁻¹ | kon (ErbB3 [5]): 143000 M⁻¹ s⁻¹ | GRR (Tumor Growth Rate Reduction) [6, 10]: 0% | effect of antibody treatment on tumor growth (in words) ([6]; vs PBS control): did not inhibit tumor growth; also recorded: no response | growth as nude mouse xenografts under MM-121 treatment (MDA-MB-231 xenografts): inhibited | growth as nude mouse xenografts under MM-121 treatment (HOP92 xenografts): not inhibited | GRR (Tumor Growth Rate Reduction) [7, 10]: 0% | effect of antibody treatment on tumor growth (in words) ([7]; vs PBS control): did not inhibit tumor growth; also recorded: no response
